Measurements as given in patent US20240181006A1, “POLYPEPTIDES BINDING ADAMTS5, MMP13 AND AGGRECAN” (Merck Patent GmbH, priority 2017, published 2024).
Blank lines part the entries; values can stand above or below the molecule they belong to.

Columns and labels:
[1] = biological target: T1, human MMP1 (Homo sapiens, UniProt P03956); assay: human MMP1 fluorogenic peptide assay (selectivity of 62C02); assay type: biochemical; details: data not shown
T1 sequence (P03956 100-469): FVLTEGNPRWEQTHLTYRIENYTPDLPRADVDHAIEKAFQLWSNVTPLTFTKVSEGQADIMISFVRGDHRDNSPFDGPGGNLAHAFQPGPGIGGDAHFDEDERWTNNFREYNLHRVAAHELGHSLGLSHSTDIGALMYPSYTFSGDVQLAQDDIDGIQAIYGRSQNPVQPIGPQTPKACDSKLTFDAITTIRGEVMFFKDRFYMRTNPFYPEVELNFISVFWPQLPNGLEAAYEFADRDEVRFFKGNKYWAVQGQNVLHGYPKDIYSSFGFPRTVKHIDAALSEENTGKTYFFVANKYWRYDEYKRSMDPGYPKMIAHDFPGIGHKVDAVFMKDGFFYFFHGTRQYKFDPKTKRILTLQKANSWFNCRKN
Experimental: (§1) In brief, the setup of human, cynomolgus, rat, dog and bovine MMP13 fluorogenic peptide assays, as well as human MMP1 and MMP14 fluorogenic peptide assays is as follows. Activated MMP was incubated with fluorogenic peptide substrate Mca-PLGL-Dpa-AR-NH2 (R&D Systems #ES001) and a ⅕ dilution of periplasmic extract or a dilution series of purified Nanobody/positive control (total volume=20 μl in assay buffer 50 mM Tris pH 7.5, 100 mM NaCl, 10 mM CaCl2), 0.01% Tween20), for 2 h at 37° C. The linear increase of fluorescence (v0-between 15 and 45 min incubation) was used as a measure for the enzymatic activity and % inhibition was calculated with the formula 100-100 (v0 in the presence of test Nanobody/v0 in the presence of negative control Nanobody (Cablys)).
(§2) In order to determine the selectivity of ISVD 62C02 for MMP13, fluorogenic peptide assays for MMP1 and MMPP14 were used. MMP1 and MMP14 are two closely related MMP family members. TIMP-2 was used as positive control in these assays. A similar set up as described in Example 1.1 was used.

[2] = biological target: T2, human MMP14 (Homo sapiens, UniProt P50281); assay: human MMP14 fluorogenic peptide assay (selectivity of 62C02); assay type: biochemical; details: data not shown
Experimental: as §1, §2

[3] = biological target: T2, human MMP14; assay: FRET-based human MMP14 assay (selectivity of 02F03); assay type: biochemical; details: data not shown
Experimental: (§3) To confirm the selectivity of ISVD 02F03 for ADAMTS5, inhibition of the enzymatic activity of MMP1, MMP14 and ADAMTS4 was evaluated via FRET-based assays and a human ADAMTS4 AlphaLISA, with the respective enzymes.
(§4) Activated human MMP1 or MMP14 was incubated for 30 minutes at room temperature with 10 μl of dilution series of ISVD 02F03. After incubation, 20 μl of respectively 5 μM or 2.5 μM fluorogenic peptide substrate (Mca-PLGL-Dpa-AR-NH2 Fluorogenic MMP Substrate (R&D Systems cat #ES001)) was added. The ability of ISVD 02F03 to prevent MMP1- and MMP14-mediated cleavage was monitored every minute for 2 hours at 37° C. on a Tecan Infinite M1000 plate reader.

[4] = biological target: T1, human MMP1; assay: FRET-based human MMP1 assay (selectivity of 02F03); assay type: biochemical; details: data not shown
Experimental: as §3, §4

[5] = biological target: T3, Bov G1-IGD-G2 (Bos taurus, UniProt P13608); assay: periplasmic extract ELISA, bovine Aggrecan G1-IGD-G2; assay type: binding
T3 construct: the recombinant G1-IGD-G2 region from human, cynomolgus, rat, dog and bovine Aggrecan
From the text: (§5) After the primary screening, initial assessment of binding via ELISA, determination of off-rate and species cross-reactivity, ISVD 114F08 was subjected to further characterization.

[6] = biological target: T4, Dog G1-IGD-G2 (Canis lupus familiaris, UniProt Q28343); assay: periplasmic extract ELISA, dog Aggrecan G1-IGD-G2; assay type: binding
T4 construct: Dog G1-IGD-G2
From the text: as §5

[7] = system: Cy G1-IGD-G2; assay: periplasmic extract ELISA, cynomolgus Aggrecan G1-IGD-G2; assay type: binding
From the text: as §5

[8] = biological target: T5, Hu G1-IGD-G2 (Homo sapiens, UniProt P16112); assay: periplasmic extract ELISA, human Aggrecan G1-IGD-G2; assay type: binding
T5 construct: Hu G1-IGD-G2
From the text: as §5

[9] = system: Rat G1-IGD-G2; assay: periplasmic extract ELISA, rat Aggrecan G1-IGD-G2; assay type: binding
From the text: as §5

T5 sequence (P16112 20-676 limits assumed): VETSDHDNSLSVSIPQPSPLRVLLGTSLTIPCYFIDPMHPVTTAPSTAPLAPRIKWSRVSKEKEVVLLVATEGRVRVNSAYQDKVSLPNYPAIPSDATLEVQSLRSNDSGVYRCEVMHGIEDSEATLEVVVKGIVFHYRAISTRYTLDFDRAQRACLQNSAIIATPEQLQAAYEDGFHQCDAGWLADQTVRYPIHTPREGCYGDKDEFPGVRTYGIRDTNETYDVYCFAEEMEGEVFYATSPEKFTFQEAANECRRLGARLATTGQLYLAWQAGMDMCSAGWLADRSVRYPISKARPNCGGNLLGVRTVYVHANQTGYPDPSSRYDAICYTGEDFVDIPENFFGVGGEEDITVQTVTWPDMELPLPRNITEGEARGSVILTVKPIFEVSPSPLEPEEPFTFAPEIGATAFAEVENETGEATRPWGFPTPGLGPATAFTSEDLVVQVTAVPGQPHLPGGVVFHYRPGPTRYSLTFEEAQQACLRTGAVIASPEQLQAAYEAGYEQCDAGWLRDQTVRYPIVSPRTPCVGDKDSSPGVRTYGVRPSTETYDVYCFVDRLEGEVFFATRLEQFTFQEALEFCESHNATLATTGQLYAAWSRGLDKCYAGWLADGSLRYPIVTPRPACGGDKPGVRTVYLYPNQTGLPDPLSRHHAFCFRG
T3 sequence (P13608 20-685 limits assumed): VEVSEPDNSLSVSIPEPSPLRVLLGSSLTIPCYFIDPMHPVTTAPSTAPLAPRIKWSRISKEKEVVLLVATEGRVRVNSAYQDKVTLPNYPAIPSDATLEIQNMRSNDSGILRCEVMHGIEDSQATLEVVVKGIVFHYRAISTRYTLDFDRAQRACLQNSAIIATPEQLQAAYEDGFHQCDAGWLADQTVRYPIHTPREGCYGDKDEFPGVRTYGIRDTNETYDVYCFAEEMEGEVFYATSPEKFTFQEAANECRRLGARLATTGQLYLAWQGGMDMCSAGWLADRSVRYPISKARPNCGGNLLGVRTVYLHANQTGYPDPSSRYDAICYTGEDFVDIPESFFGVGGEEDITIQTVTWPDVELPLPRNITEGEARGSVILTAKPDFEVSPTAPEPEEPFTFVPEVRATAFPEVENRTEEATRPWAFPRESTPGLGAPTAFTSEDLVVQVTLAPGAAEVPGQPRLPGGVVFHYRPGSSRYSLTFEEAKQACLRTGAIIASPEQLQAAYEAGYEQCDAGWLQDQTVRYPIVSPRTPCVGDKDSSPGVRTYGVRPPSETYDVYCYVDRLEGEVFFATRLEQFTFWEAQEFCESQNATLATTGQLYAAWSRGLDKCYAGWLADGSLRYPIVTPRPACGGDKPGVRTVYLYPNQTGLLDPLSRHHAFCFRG
Chain of Rat G1-IGD-G2 (P07897 20-684 limits assumed): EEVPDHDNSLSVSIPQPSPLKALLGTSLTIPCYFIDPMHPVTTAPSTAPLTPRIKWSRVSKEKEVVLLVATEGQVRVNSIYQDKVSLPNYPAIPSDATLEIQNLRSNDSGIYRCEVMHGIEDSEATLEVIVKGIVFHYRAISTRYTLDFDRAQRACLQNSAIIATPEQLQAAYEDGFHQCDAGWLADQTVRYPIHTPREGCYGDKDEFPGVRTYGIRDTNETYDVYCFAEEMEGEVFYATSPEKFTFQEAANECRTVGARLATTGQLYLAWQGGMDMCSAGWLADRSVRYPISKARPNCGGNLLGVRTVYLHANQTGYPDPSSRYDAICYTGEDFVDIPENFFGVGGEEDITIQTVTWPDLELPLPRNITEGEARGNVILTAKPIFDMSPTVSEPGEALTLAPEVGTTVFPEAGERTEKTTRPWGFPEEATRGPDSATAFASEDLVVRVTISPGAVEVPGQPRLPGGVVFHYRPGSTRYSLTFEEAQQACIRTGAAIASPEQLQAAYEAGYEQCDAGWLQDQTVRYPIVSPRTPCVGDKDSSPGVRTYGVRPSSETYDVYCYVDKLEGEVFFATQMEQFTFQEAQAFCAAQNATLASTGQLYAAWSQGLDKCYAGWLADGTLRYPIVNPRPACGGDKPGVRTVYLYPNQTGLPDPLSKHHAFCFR
T4 sequence (Q28343 20-693): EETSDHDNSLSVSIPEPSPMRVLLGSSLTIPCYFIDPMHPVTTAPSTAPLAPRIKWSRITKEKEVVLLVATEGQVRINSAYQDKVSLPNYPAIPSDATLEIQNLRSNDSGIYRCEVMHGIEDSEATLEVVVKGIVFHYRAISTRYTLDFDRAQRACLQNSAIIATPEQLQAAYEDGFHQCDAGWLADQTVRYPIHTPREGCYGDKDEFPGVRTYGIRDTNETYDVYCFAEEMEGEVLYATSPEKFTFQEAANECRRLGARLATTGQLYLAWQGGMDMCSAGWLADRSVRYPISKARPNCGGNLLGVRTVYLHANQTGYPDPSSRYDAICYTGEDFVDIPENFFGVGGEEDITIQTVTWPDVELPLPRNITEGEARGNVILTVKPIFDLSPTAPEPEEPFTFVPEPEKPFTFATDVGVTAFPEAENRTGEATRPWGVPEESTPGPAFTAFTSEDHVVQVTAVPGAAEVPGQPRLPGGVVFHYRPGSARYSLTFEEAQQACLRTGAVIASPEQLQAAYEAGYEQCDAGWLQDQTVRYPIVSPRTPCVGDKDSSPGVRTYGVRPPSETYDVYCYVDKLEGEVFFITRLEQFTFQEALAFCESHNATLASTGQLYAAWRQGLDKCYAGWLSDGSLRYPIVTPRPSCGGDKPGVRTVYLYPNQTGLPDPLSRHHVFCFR

- MMP1 inhibition [1]: no MMP1 or MMP14 inhibition
- MMP14 inhibition [2]: no MMP1 or MMP14 inhibition
B1: ISVD 62C02: MMP13 specific immunoglobulin single variable domain (protein)
VHH: EVQLVESGGGVVQPGGSLRLSCAASGFAFSAAYMSWVRQAPGKGLEWVSSISDDGSKTYYADSVKGRFTISRDNSKNTVYLQMNSLRPEDTALYYCNTGYGATTTRPGRYWGQGTLVTVSS
modifications: Description of Artificial Sequence: Synthetic anti-MMP13 immunoglobulin single variable domain (ISVD)

- inhibition of MMP14 activity [3]: inhibited
- inhibition of MMP1 activity [4]: inhibited
B2: TIMP3: natural inhibitor of MMP1 and MMP14 (protein)
chain: CTCSPSHPQDAFCNSDIVIRAKVVGKKLVKEGPFGTLVYTIKQMKMYRGFTKMPHVQYIHTEASESLCGLKLEVNKYQYLLTGRVYDGKMYTGLCNFVERWDQLTLSQRKGLNYRYHLGCNCKIKSCYYLPCFVTSKNECLWTDMLSNFGYPGYQSKHYACIRQKGGYCSWYRGWAPPDKSIINATDP

- Periplasmic extract ELISA OD 450 nm, Bov G1-IGD-G2 [5]: 1.18
- Periplasmic extract ELISA OD 450 nm, Dog G1-IGD-G2 [6]: 1.90
- Periplasmic extract ELISA OD 450 nm, Hu G1-IGD-G2 [8]: 2.38
B3: ISVD 114F08: Aggrecan-specific immunoglobulin single variable domain (CAP), binds G1 domain (protein)
VHH: EVQLVESGGGVVQPGGSLRLSCAASGSTFIINVVRWYRRAPGKQRELVATISSGGNANYVDSVRGRFTISRDNSKNTVYLQMNSLRPEDTALYYCNVPTTHYGGVYYGPYWGQGTLVTVSS
modifications: Description of Artificial Sequence: Synthetic anti-Aggrecan immunoglobulin single variable domain (ISVD)
- Periplasmic extract ELISA OD 450 nm, Cy G1-IGD-G2 [7]: 2.32
- Periplasmic extract ELISA OD 450 nm, Rat G1-IGD-G2 [9]: 2.05
